Assay results: the Immune Epitope Database (IEDB)
pKd: −log10 of the molar value.

Assays:
Assay in all cases: IEDB peptide-MHC binding, purified MHC/competitive/radioactivity; filed as Kd, often an IC50 or EC50 that approximates it; ≥ and ≤ were set here for values at or beyond the usual limits of such assays
HLA-A*11:01 = target: HLA-A*11:01
HLA-A*03:01 = target: HLA-A*03:01
HLA-A*31:01 = target: HLA-A*31:01
HLA-A*33:01 = target: HLA-A*33:01
HLA-A*68:01 = target: HLA-A*68:01
[1] = source organism: Mammarenavirus guanaritoense
[2] = source organism: Vaccinia virus WR
[3] = source organism: SARS coronavirus Tor2
[4] = source organism: Dengue virus 3 Martinique/1243/1999
[5] = source organism: Dengue virus 1 Brazil/97-11/1997
[6] = source organism: Dengue virus 2 Jamaica/1409/1983
[7] = source organism: Lymphocytic choriomeningitis virus (strain Armstrong)

FFTASLFLH showed a pKd (HLA-A*11:01; source organism: Mammarenavirus juninense) of 6.61.
Sequence FFTTSLFLH has a pKd (HLA-A*03:01; [1]) of at most 4.25, a pKd (HLA-A*11:01; [1]) of at most 4.11 and a pKd (HLA-A*31:01; [1]) of 5.92. For the same sequence, the pKd (HLA-A*33:01; [1]) was at most 4.11 and the pKd (HLA-A*68:01; [1]) was at most 4.61.
With FLEFSNRVY the pKd (HLA-A*03:01; [2]) was 7.36, the pKd (HLA-A*11:01; [2]) was 5.49 and the pKd (HLA-A*31:01; [2]) was 5.88. It also gave a pKd (HLA-A*33:01; [2]) of 5.07 and a pKd (HLA-A*68:01; [2]) of 5.00.
FLKDDTLSK gave a pKd (HLA-A*03:01; [2]) of 6.46, a pKd (HLA-A*11:01; [2]) of at most 5.00 and a pKd (HLA-A*31:01; [2]) of at most 4.11. For the same sequence, the pKd (HLA-A*33:01; [2]) was at most 4.51 and the pKd (HLA-A*68:01; [2]) was 6.20.
Sequence FLKEQHCQK has a pKd (HLA-A*03:01; [3]) of 6.71, a pKd (HLA-A*11:01; [3]) of 4.81 and a pKd (HLA-A*31:01; [3]) of 6.10. It also gave a pKd (HLA-A*33:01; [3]) of 6.19 and a pKd (HLA-A*68:01; [3]) of 5.88.
In the case of FLLNKEMYLK, the pKd (HLA-A*03:01; [3]) was 7.23, the pKd (HLA-A*11:01; [3]) was 6.82 and the pKd (HLA-A*31:01; [3]) was 5.68. It also gave a pKd (HLA-A*33:01; [3]) of 5.60 and a pKd (HLA-A*68:01; [3]) of 6.01.
With FVFPLNSKVK the pKd (HLA-A*03:01; [3]) was 6.79, the pKd (HLA-A*11:01; [3]) was 6.95 and the pKd (HLA-A*31:01; [3]) was 4.89. The pKd (HLA-A*33:01; [3]) was 4.78 and the pKd (HLA-A*68:01; [3]) was 8.06.
Work on GAMLFLISGK yielded a pKd (HLA-A*03:01; [4]) of 8.41 and a pKd (HLA-A*11:01; [4]) of 7.37.
GTSIFAGHLK gave a pKd (HLA-A*03:01; [4]) of 8.41, a pKd (HLA-A*11:01; [4]) of 7.63 and a pKd (HLA-A*68:01; [4]) of 6.94.
Sequence GVVREFLTR has a pKd (HLA-A*03:01; [3]) of 4.72, a pKd (HLA-A*11:01; [3]) of 6.28 and a pKd (HLA-A*31:01; [3]) of 6.05. It also gave a pKd (HLA-A*33:01; [3]) of 4.88 and a pKd (HLA-A*68:01; [3]) of 6.73.
HINTLIQYR showed a pKd (HLA-A*03:01; [2]) of 6.72, a pKd (HLA-A*11:01; [2]) of 6.71 and a pKd (HLA-A*31:01; [2]) of 8.22. It also gave a pKd (HLA-A*33:01; [2]) of 7.78 and a pKd (HLA-A*68:01; [2]) of 7.83.
HMIVSKQER gave a pKd (HLA-A*31:01; [5]) of at most 4.11 and a pKd (HLA-A*33:01; [5]) of 5.06.
In the case of IILAALFMYY, the pKd (HLA-A*03:01; [2]) was 6.17, the pKd (HLA-A*11:01; [2]) was 6.13 and the pKd (HLA-A*31:01; [2]) was at most 4.15. The pKd (HLA-A*33:01; [2]) was at most 4.15 and the pKd (HLA-A*68:01; [2]) was 5.83.
Work on IITSTKTIEY yielded a pKd (HLA-A*03:01; [2]) of 7.09, a pKd (HLA-A*11:01; [2]) of 6.04 and a pKd (HLA-A*31:01; [2]) of 5.18. The pKd (HLA-A*33:01; [2]) was 4.85 and the pKd (HLA-A*68:01; [2]) was 5.24.
ILKRWGQLKK showed a pKd (HLA-A*03:01; source organism: Dengue virus 4 Philippines/H241/1956) of 7.41.
For IMASLVLAR, the pKd (HLA-A*03:01; [3]) was 7.97, the pKd (HLA-A*11:01; [3]) was 6.98 and the pKd (HLA-A*31:01; [3]) was 7.74. The pKd (HLA-A*33:01; [3]) was 6.25 and the pKd (HLA-A*68:01; [3]) was 7.55.
With IMFMLIFNVK the pKd (HLA-A*03:01; [2]) was 6.80, the pKd (HLA-A*11:01; [2]) was 6.70 and the pKd (HLA-A*31:01; [2]) was 6.18. The pKd (HLA-A*33:01; [2]) was 5.91 and the pKd (HLA-A*68:01; [2]) was 6.87.
ISDYSAEVER gave a pKd (HLA-A*03:01; [2]) of at most 4.63, a pKd (HLA-A*11:01; [2]) of 5.42 and a pKd (HLA-A*31:01; [2]) of 5.76. The pKd (HLA-A*33:01; [2]) was 5.87 and the pKd (HLA-A*68:01; [2]) was 6.64.
Sequence IVTCAMFTCK has a pKd (HLA-A*03:01; [6]) of 6.44 and a pKd (HLA-A*11:01; [6]) of 6.45.
IVTMFEALPH showed a pKd (HLA-A*31:01; [7]) of at most 4.15, a pKd (HLA-A*33:01; [7]) of 7.12 and a pKd (HLA-A*68:01; [7]) of 5.23.
